Assay [1] has as its target T1, human PD-L2 on CHO-K1 cells over-expressing hPDL2-GFP (human, UniProt Q9BQ51 20-273).
T1 construct: whole, on cells; also called cellular hPD-L2; cellular PDL2; not shown: GFP of the hPDL2-GFP construct
T1 sequence (looked up): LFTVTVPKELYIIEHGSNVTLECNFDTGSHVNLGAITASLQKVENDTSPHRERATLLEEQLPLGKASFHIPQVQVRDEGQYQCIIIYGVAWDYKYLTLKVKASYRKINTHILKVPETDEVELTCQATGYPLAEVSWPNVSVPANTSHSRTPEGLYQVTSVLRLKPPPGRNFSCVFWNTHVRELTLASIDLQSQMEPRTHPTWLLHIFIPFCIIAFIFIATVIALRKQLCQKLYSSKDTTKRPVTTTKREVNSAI
Put plainly: binding to cellular PDL2 (FIG. 1A by the text; flow cytometry on CHO-K1 cells expressing hPD-L2). How it is done: (§1) CHO-K1 cells over-expressing either hPDL2-GFP or mPD-L2 GFP were detached, washed in phosphate buffered saline (PBS) and adjusted to a cell concentration of around 1 million cells in cytometry buffer (CB, PBS containing 1% […]). Around 80,000 cells were then distributed into a round-bottom 96 well plate and the plate was centrifuged for 3 minutes at 400 g at 4° C. and supernatant discarded. Appropriate antibody concentrations in 50 microliter volumes were added to the wells and incubated for 30 minutes at 6-8° C. The plate was washed 3 times with PBS and relevant secondary antibodies (either AlexaFluor 647 Goat anti-Mouse IgG (H+L) (Invitrogen A21235/lot 1915807) or AlexaFluor 647 Goat anti-Rat IgG (H+L) (Invitrogen A21247/lot 1921562) were added for 30 minutes at 4° C. Cells were again washed with PBS two times, resuspended in CB and analyzed in either the Sony ID7000 Spectral Cell analyzer (Sony) or the GALLIOS Flow Cytometer (Beckman-Coulter) was used. EC₅₀ was calculated using the Sigmoidal 4PL equation of the GraphPad Prism-9 software.

Assay [2] has as its target T1, human PD-L2 on CHO-K1 cells …. Put plainly: flow cytometry blocking assay: antibody titrated against recombinant hPD-1 (constant 15 micrograms/mL) binding to CHO-K1 cells expressing hPD-L2; signal falls with the antibody; column head on the sheet is EC50. How it is done: CHO-K1 cells over-expressing either hPDL2-GFP were detached, washed in phosphate buffered saline (PBS) and adjusted to a cell concentration of around 1 million cells in CB. Around 80,000 cells were then distributed into a round-bottom 96 well plate and the plate was centrifuged for 3 minutes at 400 g at 4° C. and supernatant discarded. A constant concentration of ligand recombinant hPD-1 ligand (Sino Biological 10377-H08H/lot LC13JA2207) of 15 micrograms/mL was incubated with respective concentration of antibody, added to the cells and incubated for 30 min at 6-8° C. Cells were washed 3 times in PBS and then incubated with a rabbit polyclonal anti-His (Abcam Ab1187/lot GR3369369-1) in CB and subsequently washed three times in PBS. Cells were then incubated with a labeled anti-rabbit secondary (AlexaFluor 647 Goat anti-Rabbit IgG (H+L) (Invitrogen A21244/lot 1910774) for 15 minutes at 4° C., washed two times in PBS, resuspended in CB and analyzed in the Sony ID7000 Spectral Cell analyzer (Sony).

Assay [3] concerns the target T2, human PD-L2 on CHO-K1 cells of the Promega PD-1/PD-L2 blockade bioassay (human, UniProt Q9BQ51 20-273).
T2 sequence (looked up): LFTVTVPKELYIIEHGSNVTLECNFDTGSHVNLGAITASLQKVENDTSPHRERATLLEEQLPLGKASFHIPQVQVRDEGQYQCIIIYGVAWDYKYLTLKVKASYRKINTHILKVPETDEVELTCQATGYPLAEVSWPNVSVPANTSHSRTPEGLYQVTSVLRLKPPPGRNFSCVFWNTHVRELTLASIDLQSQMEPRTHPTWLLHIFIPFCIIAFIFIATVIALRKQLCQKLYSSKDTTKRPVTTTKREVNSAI
Put plainly: cell-based or functional assay.

The target in assay [4] is T1, human PD-L2 on CHO-K1 cells …. Put plainly: flow cytometry on CHO-K1 cells expressing hPD-L2, median fluorescence. Here is the method:
as §1

Assay [5] has as its target T3, recombinant mouse PD-L2 (Sino Biological, cat 50804-M08H-B) (mouse, UniProt Q9WUL5 20-219).
T3 construct: Bought protein; also called recombinant mPD-L2; recombinant mPDL2
T3 sequence (looked up): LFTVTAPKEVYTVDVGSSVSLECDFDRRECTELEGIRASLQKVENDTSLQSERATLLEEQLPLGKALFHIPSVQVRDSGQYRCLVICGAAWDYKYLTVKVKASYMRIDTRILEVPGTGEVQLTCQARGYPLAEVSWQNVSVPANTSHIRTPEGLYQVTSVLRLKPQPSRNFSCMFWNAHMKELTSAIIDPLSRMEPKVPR
Put plainly: ELISA on recombinant mPD-L2 according to the legend; the y axis on the sheet reads 'Mean fluorescent unit'.

B1: VH0/VK0-mIgG1 (parental murine monoclonal antibody VHP/VKP on mIgG1 backbone) (antibody, V domains shown)
VH: QVQLQQSGAELVRPGTSVKVSCKASGYAFSNYFIEWVKQRPGQGLEWIGLNIPGSGGSNYAEKFKGKATLTADKSSSTAYMQLSSLTSEDSAVYFCARRRLPPDWYFDVWGTGTTVTVSS
VL: DVVMTQTPLSLPVSLGDQASISCRSSQSLVHSDGNTYLHWYLQKPGQSPKLLIYKVSNRFSGVPDRFSGSGSGTDFTLKISRVEAEDLGVYFCSQSTHVPWTFGGGTKLEIK
notes: Murine IgG1 backbone; also called parental mouse antibody
On to B1, for which the EC50 in assay [1] worked out at 0.219 nM; in assay [2], 0.6 nM; in assay [4], 0.538 nM. For the same molecule, in assay [3], the “EC50 (PD-1/PD-L2 blockade reporter assay, luminescence)” value turned out to be 1.11 nM. For the same molecule, in assay [5], the “EC50 (read off the curve)” value is around 0.5 nM.

These data come from patent publication US20250179187A1 (REJUVERON SENESCENCE THERAPEUTICS, published 2025).
